Laboratory results taken from patent publication US20120034254A1.

Legend:
Experiment in all cases: SPR
CD4 = CD4 (UniProt P01730)
WT Hxbc2 core = target: WT Hxbc2 core
Full length Hxbc2 gp120 = target: Full length Hxbc2 gp120

Row | Substance | Kd (CD4) [nM] | Kd (WT Hxbc2 core) [nM] | Kd (Full length Hxbc2 gp120) [nM]
1 | Full length Hxbc2 gp120 | 6.29 | – | –
2 | WT Hxbc2 core | 15.1 | – | –
3 | b12 | – | 2.67 | 2.63
